In publication PMC6443781:

Tests used:
[1] = biological target: AP2M1 (residues 160–435) (human) (UniProt Q96CW1); assay: ITC; MicroCal ITC200, 20 °C, 25 mM HEPES pH 7.5, 50 mM NaCl; AP2M1 (160–435) 50 µM in the cell, IRS1 peptide (about 0.5 mM) injected
[2] = biological target: AP2M1 160-435 (UniProt Q96CW1); assay: isothermal titration calorimetry; conditions: reference: unphosphorylated peptide YMPMS; sites S616
[3] = biological target: AP2M1 160-435 (UniProt Q96CW1); assay: peptide-bead pull-down, Coomassie; conditions: reference: unphosphorylated peptide YMPMS
[4] = biological target: GFP-AP2B1 full length (FL) (UniProt P63010); assay: co-immunoprecipitation (anti-Myc IP, anti-AP2B1 blot, band quantification); conditions: 293FT cells transfected with GFP-AP2B1 and Myc-BUBR1; n = 3 independent experiments; parent: 1
UniProt P63010, sequence (P63010 whole entry): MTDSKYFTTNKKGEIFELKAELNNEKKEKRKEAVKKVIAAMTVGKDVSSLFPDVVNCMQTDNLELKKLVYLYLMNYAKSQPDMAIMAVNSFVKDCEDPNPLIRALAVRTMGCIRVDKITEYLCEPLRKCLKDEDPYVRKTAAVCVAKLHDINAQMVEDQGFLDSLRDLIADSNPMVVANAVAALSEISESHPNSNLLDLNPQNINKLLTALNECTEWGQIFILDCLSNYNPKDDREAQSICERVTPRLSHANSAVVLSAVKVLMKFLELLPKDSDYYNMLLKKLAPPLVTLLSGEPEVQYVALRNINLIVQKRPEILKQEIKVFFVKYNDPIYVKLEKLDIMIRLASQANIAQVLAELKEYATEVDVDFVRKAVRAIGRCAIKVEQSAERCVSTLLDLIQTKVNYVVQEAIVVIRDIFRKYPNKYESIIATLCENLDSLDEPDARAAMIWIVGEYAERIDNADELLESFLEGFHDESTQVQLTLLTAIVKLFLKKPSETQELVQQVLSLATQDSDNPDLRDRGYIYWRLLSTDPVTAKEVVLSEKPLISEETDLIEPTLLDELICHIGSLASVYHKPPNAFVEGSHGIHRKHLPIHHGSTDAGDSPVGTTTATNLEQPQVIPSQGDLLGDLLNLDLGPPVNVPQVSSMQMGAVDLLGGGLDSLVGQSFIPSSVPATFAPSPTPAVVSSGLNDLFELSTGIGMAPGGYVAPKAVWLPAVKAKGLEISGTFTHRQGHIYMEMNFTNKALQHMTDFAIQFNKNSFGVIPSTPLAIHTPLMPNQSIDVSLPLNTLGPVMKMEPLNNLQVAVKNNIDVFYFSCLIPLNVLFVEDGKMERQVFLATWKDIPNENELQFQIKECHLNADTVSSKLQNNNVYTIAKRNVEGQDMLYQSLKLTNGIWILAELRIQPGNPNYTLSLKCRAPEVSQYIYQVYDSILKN

UniProt Q96CW1, sequence (Q96CW1 160-435): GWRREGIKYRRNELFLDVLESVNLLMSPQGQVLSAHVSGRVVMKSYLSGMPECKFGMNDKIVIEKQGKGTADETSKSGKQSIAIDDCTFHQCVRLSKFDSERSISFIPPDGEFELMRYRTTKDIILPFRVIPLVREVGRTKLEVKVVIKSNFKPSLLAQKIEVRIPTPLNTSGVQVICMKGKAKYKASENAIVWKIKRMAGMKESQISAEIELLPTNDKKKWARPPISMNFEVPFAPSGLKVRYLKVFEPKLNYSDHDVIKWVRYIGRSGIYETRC

Row | Substance | ratio to parent [4] | also measured
1 | phospho-serine IRS1 peptide (pS-IRS1; YMPMpS) | – | Kd [1]: 280 nM
2 | IRS1 607-620 (from UniProt P35568) YMPMpS peptide | – | KD [2]: stronger; reference 2.03 µM; binding against the reference ([3]; sites S616): stronger
3 | IRS1 607-620 (from UniProt P35568) pYMPMS peptide | – | binding against the reference ([3]; sites Y612): lost
4 | unphosphorylated IRS1 peptide (YMPMS) | – | Kd [1]: 2030 nM
5 | Myc-BUBR1 full length (WT) (from UniProt O60566) ΔKEN1 | 1.31 | –

More lines, main results first:

Row | ratio to parent [4] | Substance | also measured
6 | 0.75 | Myc-BUBR1 full length (WT) (from UniProt O60566) ΔPhe | –
7 | 0.94 | Myc-BUBR1 full length (WT) (from UniProt O60566) ΔKEN2 | –
8 | 0.72 | Myc-BUBR1 full length (WT) (from UniProt O60566) ΔD2 | –
9 | 0.67 | Myc-BUBR1 full length (WT) (from UniProt O60566) ΔPhe; ΔD2 | –
